The results in this text go back to publication PMC4576506.

This assay addresses recombinant human glycine receptor α1 subunit (hGlyRα1) homopentamer, detergent solubilized (human) (UniProt P23415). In words: SEC. For orientation: SEC sorts molecules by how far they enter the pores of the column.

The term stoichiometry N denotes a count of units in the complex or per binding partner. On to “recombinant human glycine receptor α1 subunit (hGlyRα1) homopentamer, detergent solubilized (from UniProt P23415-2 29-449)”, for which the stoichiometry N was determined as 5.
